{"source": "patent US20240101645A1", "about": "(HENRY M JACKSON FOUNDATION FOR THE ADVANCEMENT OF MILITARY …, published 2024)", "binders": {"B1": {"name": "COV_2063 (antibody, V domains shown)", "VH": "EVQLVESGGGVVQPGRSLRLSCAASGFTFSSYGMHWVRQAPGKGLEWVAVIWYDGSNKYYADSVKGRFTISRDNSKNTLYLQMNSLRAEDTAVYYCARGPLGSNYFNYDAFDIWGQGTMVTVSS", "VL": "DVVMTQSPLSLPVTLGQPASISCRSSQSLEYSDGNTYLNWFQQRPGQSPRRLIYKVSKRDSGVPDRFSGSGSGSDFTLKISRVEAEDVGVYYCMQGTHWPLTFGGGTKVEIK"}}, "target": "SARS-CoV-1 S on pseudovirions (Sino 1-11, 28 amino acid C-terminal deletion) (SARS-CoV-1, UniProt P59594 14-1227)", "experiment": "cell-based or functional assay"}
{"binder": "B1", "values": [{"measurement": "IC50, SARS-CoV-1 pseudotyped neutralization", "result": 0.095, "unit": "µg/mL"}]}
